Experimental data published in the supplement of paper PMC9942255.
“And” between values parts separate entries of the source, which are not always exact repeats. Equal entries are not always repeated.

System: Bacillus subtilis DB104 (SP-AmyQ fusion secretion)
Experiment: AmyQ secretion efficiency, weighted average sort bin (1 = best secretion, 10 = worst) (bin number (weighted average, 1-10)); higher = lower secretion efficiency
In short: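 In this assay, the secretion score is defined as the average bin number weighted by read frequency, normalised to beads per bin, with low-abundance sequences not counted. B. subtilis DB104 cells expressing mature AmyQ behind designed signal peptides (amyE-integrated) were enclosed with fluorescein-starch in ~65 nL alginate beads at about 0.3 cells per bead. Beads grew about 13 h at room temperature, were stained with nile red, and occupied beads went into 10 equally populated green/red fluorescence ratio bins by large-particle flow cytometry, whose amplicons were Illumina-sequenced.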

## MKKRLKRKRVLVPALIMSGITLIEANKK
  AmyQ secretion efficiency: 6.77

## MKKRMMMIMFFGPIILAFILFAGAIAIPS
  AmyQ secretion efficiency: 7.34

## MKKRQIAPGLLSAASLAFFAMSGSAQAAAY
  AmyQ secretion efficiency: 4.58

## MKKRRAIIIAIIAAVIVIAALITFNVRNASPG
  AmyQ secretion efficiency: 5.35

## MKKRRGRGSVLVPALIMSGITLIEANKK
  AmyQ secretion efficiency: 7.89

## MKKRRIVSILFMFGLVMGFSQFQPSTVFAADK
  AmyQ secretion efficiency: 2.46

## MKKRRKKLLAAGIIGLLTVSIASPSFAAEK
  AmyQ secretion efficiency: 3.36

## MKKRRKSFVAVAALSTTAFGAHASAKEI
  AmyQ secretion efficiency: 6.63

## MKKRRLIGFLVLVPALIMSGITLIEANKK
  AmyQ secretion efficiency: 6.64

## MKKRRLLAAGIIGLLTVSIASPSFAAEK
  AmyQ secretion efficiency: 2.29 and 2.73

## MKKRRRRIAMLILAGIALFVFISPLKSHKT
  AmyQ secretion efficiency: 6.26

## MKKRRSLIMMTGLLFGLTSPAFAAEK
  AmyQ secretion efficiency: 3.58

## MKKRRVLMAFIICLSLILSVLAAPPSGAKAESV
  AmyQ secretion efficiency: 1.87

## MKKRRYFIVFICFFVLFSVHPIAAAAADS
  AmyQ secretion efficiency: 3.35

## MKKRTIQVMIMFTLLLTMAFSADAADS
  AmyQ secretion efficiency: 5

## MKKRWRKTSQAAVLLLMVPKVSLADAA
  AmyQ secretion efficiency: 7.38

## MKKRYMAFIICLSLILSVLAAPPSGAKAESV
  AmyQ secretion efficiency: 2

## MKKSAAVLLSLGLVSGFSYGAGHVAEAKTK
  AmyQ secretion efficiency: 2.59

## MKKSGSCQKTLAVILSGVALTQLS
  AmyQ secretion efficiency: 4.76

## MKKSKQSGRLFLGLTPAGANAADL
  AmyQ secretion efficiency: 6.97

## MKKSMLAAAVLLSLGLVFGFSYGAGHVAEAKTK
  AmyQ secretion efficiency: 2.84

## MKKSQYFIVFICFFVLFSEHEEAAAAADS
  AmyQ secretion efficiency: 4.11

## MKKSQYFIVFICFFVLFSRHKKAAAAADS
  AmyQ secretion efficiency: 6.2

## MKKSQYFIVFICFFVLFSRRKHKRRAAAADS
  AmyQ secretion efficiency: 7.81

## MKKSQYFIVFICFFVLFSSHPDEAAAADS
  AmyQ secretion efficiency: 4.15

## MKKSQYFIVFICFFVLFSVHPIAAAAASS
  AmyQ secretion efficiency: 2.35

## MKKSQYFIVFICFFVLFSVHPIAAACADS
  AmyQ secretion efficiency: 4.69

## MKKSQYFIVFICFFVLFSVHPIAAAEADS
  AmyQ secretion efficiency: 3.09

## MKKSQYFIVFICFFVLFSVHPIAAAFADS
  AmyQ secretion efficiency: 5.18

## MKKSQYFIVFICFFVLFSVHPIAAAGADS
  AmyQ secretion efficiency: 3.85

## MKKSQYFIVFICFFVLFSVHPIAAANADS
  AmyQ secretion efficiency: 4.12

## MKKSQYFIVFICFFVLFSVHPIAAARADS
  AmyQ secretion efficiency: 3.7

## MKKSQYFIVFICFFVLFSVHPIAEAAADS
  AmyQ secretion efficiency: 3.62

## MKKSQYFIVFICFFVLFSVHPIAFTPSAAAADS
  AmyQ secretion efficiency: 2.09

## MKKSQYFIVFICFFVLFSVHPIAGAAADS
  AmyQ secretion efficiency: 3.96

## MKKSQYFIVFICFFVLFSVHPIALAAADS
  AmyQ secretion efficiency: 3.9

## MKKSQYFIVFICFFVLFSVHPIAPAAADS
  AmyQ secretion efficiency: 4.14

## MKKSQYFIVFICFFVLFSVHPIAQAAADS
  AmyQ secretion efficiency: 4.87

## MKKSQYFIVFICFFVLFSVHPIARAAADS
  AmyQ secretion efficiency: 3.28

## MKKSQYFIVFICFFVLFSVHPIASAAADS
  AmyQ secretion efficiency: 4.61

## MKKSQYFIVFICFFVLFSVHPIATAAADS
  AmyQ secretion efficiency: 3.6

## MKKSQYFIVFICFFVLFSVHPIAVAAADS
  AmyQ secretion efficiency: 3.83

## MKKSQYFKRRKCFFVLFSVHPIAAAAADS
  AmyQ secretion efficiency: 9.07

## MKKSQYFRKRRCKRVLFSVHPIAAAAADS
  AmyQ secretion efficiency: 7.95

## MKKSQYGGQTFGLVMGFSQFQPSTVFAADK
  AmyQ secretion efficiency: 6.36

## MKKSQYSRQSKCTFVLFSVHPIAAAAADS
  AmyQ secretion efficiency: 7.33

## MKKSQYTTLFIVFICFFVLFSVHPIAAAAADS
  AmyQ secretion efficiency: 2.98

## MKKSRRALLLLLFAFEPSASGKKL
  AmyQ secretion efficiency: 7.28

## MKKSSYCSYQRQVILSGVALTQLS
  AmyQ secretion efficiency: 7.04

## MKKSTRKYKILGALGTSYISADSS
  AmyQ secretion efficiency: 7.69

## MKKSYKATALFLGLTPAGANAADL
  AmyQ secretion efficiency: 8.17

## MKKTGIRFLLVSFVLFFALSTGITGVQAAPA
  AmyQ secretion efficiency: 1.8

## MKKTGQQLLSLGLVFGFSYGAGHVAEAKTK
  AmyQ secretion efficiency: 3.07

## MKKTIMFVAVAALSTTAFGAHASAKEI
  AmyQ secretion efficiency: 3

## MKKTIMSFFFVAVAALSTTAFGAHASAKEI
  AmyQ secretion efficiency: 2.53

## MKKTIMSFKRKKALSTTAFGAHASAKEI
  AmyQ secretion efficiency: 7.79

## MKKTIMSFKRKKKKSTTAFGAHASAKEI
  AmyQ secretion efficiency: 6.45

## MKKTIMSFVAVAALSTGAHASAKEI
  AmyQ secretion efficiency: 2.46

## MKKTIMSFVAVAALSTTAFEEDHASAKEI
  AmyQ secretion efficiency: 2.56

## MKKTIMSFVAVAALSTTAFFAIASAKEI
  AmyQ secretion efficiency: 6.16

## MKKTIMSFVAVAALSTTAFGAHASAADD
  AmyQ secretion efficiency: 2.13

## MKKTIMSFVAVAALSTTAFGAHASAAKR
  AmyQ secretion efficiency: 2.03

## MKKTIMSFVAVAALSTTAFGAHASAATI
  AmyQ secretion efficiency: 2.11

## MKKTIMSFVAVAALSTTAFGAHASAATK
  AmyQ secretion efficiency: 3.57

## MKKTIMSFVAVAALSTTAFGAHASAKKR
  AmyQ secretion efficiency: 2.68

## MKKTIMSFVAVAALSTTAFGAHASFKEI
  AmyQ secretion efficiency: 5.37

## MKKTIMSFVAVAALSTTAFGAHASGKEI
  AmyQ secretion efficiency: 2.91

## MKKTIMSFVAVAALSTTAFGAHASLKEI
  AmyQ secretion efficiency: 6.92

## MKKTIMSFVAVAALSTTAFGAHASPKEI
  AmyQ secretion efficiency: 3.96

## MKKTIMSFVAVAALSTTAFGAHASRKEI
  AmyQ secretion efficiency: 4.66

## MKKTIMSFVAVAALSTTAFGAHASSKEI
  AmyQ secretion efficiency: 3.17

## MKKTIMSFVAVAALSTTAFGAHASTKEI
  AmyQ secretion efficiency: 5.13

## MKKTIMSFVAVAALSTTAFGAHASWKEI
  AmyQ secretion efficiency: 6.56

## MKKTIMSFVAVAALSTTAFGAHASYKEI
  AmyQ secretion efficiency: 7

## MKKTIMSFVAVAALSTTAFGAHCSAKEI
  AmyQ secretion efficiency: 2.42

## MKKTIMSFVAVAALSTTAFGAHFSAKEI
  AmyQ secretion efficiency: 4.73

## MKKTIMSFVAVAALSTTAFGAHGVFPASASAKEI
  AmyQ secretion efficiency: 3.09

## MKKTIMSFVAVAALSTTAFGAHISAKEI
  AmyQ secretion efficiency: 4.65

## MKKTIMSFVAVAALSTTAFGAHLSAKEI
  AmyQ secretion efficiency: 2.5

## MKKTIMSFVAVAALSTTAFGAHPTASAKEI
  AmyQ secretion efficiency: 2.53

## MKKTIMSFVAVAALSTTAFGAHRSAKEI
  AmyQ secretion efficiency: 5.69

## MKKTIMSFVAVAALSTTAFGAHSSAKEI
  AmyQ secretion efficiency: 3.37

## MKKTIMSFVAVAALSTTAFGAHTSAKEI
  AmyQ secretion efficiency: 2.69

## MKKTIMSFVAVAALSTTAFGAHVSAKEI
  AmyQ secretion efficiency: 2.83

## MKKTIMSFVAVAALSTTAFKRRHASAKEI
  AmyQ secretion efficiency: 7.04

## MKKTIMSFVAVAALSTTAFQPHASAKEI
  AmyQ secretion efficiency: 2.23

## MKKTIMSFVAVAALSTTAFRRRKKKHASAKEI
  AmyQ secretion efficiency: 6.72

## MKKTIMSFVAVAALSTTAFTGAHASAKEI
  AmyQ secretion efficiency: 2.34

## MKKTIMSFVAVAALSTTAFVAFTTSTLSGAHASAKEI
  AmyQ secretion efficiency: 4.48

## MKKTIMSFVAVAALSTTAFVLSSFGAHASAKEI
  AmyQ secretion efficiency: 3.42

## MKKTIMSQKQTAALSTTAFGAHASAKEI
  AmyQ secretion efficiency: 7.42

## MKKTIMSTYGVAALSTTAFGAHASAKEI
  AmyQ secretion efficiency: 8.21

## MKKTLAAGIIGLLTVSIASPSFAAEK
  AmyQ secretion efficiency: 2.62

## MKKTMTIGLLFMLCLAALFTIGFPAQQADAAEA
  AmyQ secretion efficiency: 2.9

## MKKTRQTLVILGALGTSYISADSS
  AmyQ secretion efficiency: 5.19

## MKKTSGTKYKCQSLILSVLAAPPSGAKAESV
  AmyQ secretion efficiency: 7.18

## MKKTSSFNFSSTAFLVFLSVVLVTTVFLVKQQESVAQAKQL
  AmyQ secretion efficiency: 2.65

## MKKTTNVLMAFIICLSLILSVLAAPPSGAKAESV
  AmyQ secretion efficiency: 2.36

## MKKTTTKYFMFGLVMGFSQFQPSTVFAADK
  AmyQ secretion efficiency: 3.56

## MKKVGLLAGCLAAGGFSYNAFATEN
  AmyQ secretion efficiency: 6.86

## MKKVILAAFILVGSTLGAFSFSSDASAKHV
  AmyQ secretion efficiency: 2.08

## MKKVKKRKRKCLSLILSVLAAPPSGAKAESV
  AmyQ secretion efficiency: 7.36

## MKKVKKRRIICLSLILSVLAAPPSGAKAESV
  AmyQ secretion efficiency: 1.81

## MKKVKRAFIICLSLILSVLAAPPSGAKAESV
  AmyQ secretion efficiency: 1.67

## MKKVLMAFIICLSLILDVLAAPPSGAKAESV
  AmyQ secretion efficiency: 1.95

## MKKVLMAFIICLSLILEDDDEEDSGAKAESV
  AmyQ secretion efficiency: 4.1

## MKKVLMAFIICLSLILQGGKGPPGGAKAESV
  AmyQ secretion efficiency: 5.23

## MKKVLMAFIICLSLILRRRKKPPSGAKAESV
  AmyQ secretion efficiency: 7.24

## MKKVLMAFIICLSLILSAKAESV
  AmyQ secretion efficiency: 4.24

## MKKVLMAFIICLSLILSGLAAPPSGAKAESV
  AmyQ secretion efficiency: 2.28

## MKKVLMAFIICLSLILSTISSVLAAPPSGAKAESV
  AmyQ secretion efficiency: 2.8

## MKKVLMAFIICLSLILSVLAAAKAESV
  AmyQ secretion efficiency: 4.23

## MKKVLMAFIICLSLILSVLAAPPSGAKAAED
  AmyQ secretion efficiency: 3.24

## MKKVLMAFIICLSLILSVLAAPPSGAKAARR
  AmyQ secretion efficiency: 2.06

## MKKVLMAFIICLSLILSVLAAPPSGAKAASE
  AmyQ secretion efficiency: 1.49

## MKKVLMAFIICLSLILSVLAAPPSGAKAASK
  AmyQ secretion efficiency: 1.85

## MKKVLMAFIICLSLILSVLAAPPSGAKAASV
  AmyQ secretion efficiency: 1.88

## MKKVLMAFIICLSLILSVLAAPPSGAKAKRR
  AmyQ secretion efficiency: 2.43

## MKKVLMAFIICLSLILSVLAAPPSGAKCESV
  AmyQ secretion efficiency: 3.94

## MKKVLMAFIICLSLILSVLAAPPSGAKEESV
  AmyQ secretion efficiency: 3.2

## MKKVLMAFIICLSLILSVLAAPPSGAKGESV
  AmyQ secretion efficiency: 2.46

## MKKVLMAFIICLSLILSVLAAPPSGAKIESV
  AmyQ secretion efficiency: 5.54

## MKKVLMAFIICLSLILSVLAAPPSGAKLESV
  AmyQ secretion efficiency: 8.94

## MKKVLMAFIICLSLILSVLAAPPSGAKMESV
  AmyQ secretion efficiency: 4.39

## MKKVLMAFIICLSLILSVLAAPPSGAKPESV
  AmyQ secretion efficiency: 4.65

## MKKVLMAFIICLSLILSVLAAPPSGAKQESV
  AmyQ secretion efficiency: 2.57

## MKKVLMAFIICLSLILSVLAAPPSGAKSESV
  AmyQ secretion efficiency: 3.92

## MKKVLMAFIICLSLILSVLAAPPSGAKTESV
  AmyQ secretion efficiency: 5.06
